EP1876240B1

Experiments:
[1] = target: human GPVI extracellular region-human Fc fusion protein (hGPVI-hFc) (human); assay: ELISA on immobilized antigen; control
[2] = target: rat GPVI-human Fc (rGPVI-hFc) (rat; mouse); assay: ELISA on immobilized antigen; control

human GPVI extracellular region-human Fc fusion protein (hGPVI-hFc) (human), sequence (chain, as listed by the source limits assumed, form in doubt): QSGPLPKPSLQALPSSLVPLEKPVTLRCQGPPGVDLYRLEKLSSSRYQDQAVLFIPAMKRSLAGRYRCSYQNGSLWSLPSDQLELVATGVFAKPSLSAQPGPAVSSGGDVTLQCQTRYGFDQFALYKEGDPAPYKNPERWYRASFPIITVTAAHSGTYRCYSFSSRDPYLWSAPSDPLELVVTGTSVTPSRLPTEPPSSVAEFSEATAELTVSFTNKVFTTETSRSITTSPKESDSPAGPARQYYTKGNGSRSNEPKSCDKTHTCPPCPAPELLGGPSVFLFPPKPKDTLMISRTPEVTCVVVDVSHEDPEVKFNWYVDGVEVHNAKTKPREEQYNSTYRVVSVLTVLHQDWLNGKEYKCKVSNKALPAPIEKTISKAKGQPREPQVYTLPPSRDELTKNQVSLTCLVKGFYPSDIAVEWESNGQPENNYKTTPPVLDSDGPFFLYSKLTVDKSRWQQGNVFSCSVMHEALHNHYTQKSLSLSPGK

absorbance (ELISA) [1]: 0.026
absorbance (ELISA) [2]: 0.123
Substance: Normal Mouse IgG (antibody)
